According to patent US20110045008A1 (NEW YORK UNIVERSITY, published 2011):

T1: C-terminal truncated 35S-ADAMTS-18 (AD-CTD) (Homo sapiens (Human), UniProt Q8TE60 48-1064, 35S methionine)
T1 construct: also called C-terminal deficient ADAMTS-18
T1 sequence: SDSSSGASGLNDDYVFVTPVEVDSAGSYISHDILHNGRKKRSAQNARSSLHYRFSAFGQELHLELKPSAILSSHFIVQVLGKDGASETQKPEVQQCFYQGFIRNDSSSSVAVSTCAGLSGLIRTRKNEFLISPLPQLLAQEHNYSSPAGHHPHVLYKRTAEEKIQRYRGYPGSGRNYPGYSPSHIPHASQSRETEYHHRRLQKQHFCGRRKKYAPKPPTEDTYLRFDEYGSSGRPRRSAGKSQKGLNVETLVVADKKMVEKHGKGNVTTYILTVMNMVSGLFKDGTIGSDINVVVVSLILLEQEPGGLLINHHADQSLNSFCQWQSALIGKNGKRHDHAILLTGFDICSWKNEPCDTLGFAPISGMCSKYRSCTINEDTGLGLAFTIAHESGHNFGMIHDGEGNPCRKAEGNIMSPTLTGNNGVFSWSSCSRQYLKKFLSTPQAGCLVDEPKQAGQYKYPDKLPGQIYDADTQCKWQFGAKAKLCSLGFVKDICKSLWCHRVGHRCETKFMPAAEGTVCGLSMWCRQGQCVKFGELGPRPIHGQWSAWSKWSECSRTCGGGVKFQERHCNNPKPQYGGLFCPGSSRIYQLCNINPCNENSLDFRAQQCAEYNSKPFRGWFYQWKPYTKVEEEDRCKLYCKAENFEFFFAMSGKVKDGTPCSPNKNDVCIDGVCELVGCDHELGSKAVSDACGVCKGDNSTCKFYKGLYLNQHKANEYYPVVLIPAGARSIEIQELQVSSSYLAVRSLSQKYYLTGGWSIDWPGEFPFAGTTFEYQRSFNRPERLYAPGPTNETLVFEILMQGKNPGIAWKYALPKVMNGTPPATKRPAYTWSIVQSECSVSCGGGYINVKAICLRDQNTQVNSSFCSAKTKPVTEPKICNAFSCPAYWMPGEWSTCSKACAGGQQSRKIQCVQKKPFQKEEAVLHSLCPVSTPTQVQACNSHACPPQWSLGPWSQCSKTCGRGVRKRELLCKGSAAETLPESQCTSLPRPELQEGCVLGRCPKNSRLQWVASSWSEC

B1: platelet GPIIIa (integrin beta3) on platelets (receptor, human, UniProt P05106 27-788, looked up)
chain: GPNICTTRGVSSCQQCLAVSPMCAWCSDEALPLGSPRCDLKENLLKDNCAPESIEFPVSEARVLEDRPLSDKGSGDSSQVTQVSPQRIALRLRPDDSKNFSIQVRQVEDYPVDIYYLMDLSYSMKDDLWSIQNLGTKLATQMRKLTSNLRIGFGAFVDKPVSPYMYISPPEALENPCYDMKTTCLPMFGYKHVLTLTDQVTRFNEEVKKQSVSRNRDAPEGGFDAIMQATVCDEKIGWRNDASHLLVFTTDAKTHIALDGRLAGIVQPNDGQCHVGSDNHYSASTTMDYPSLGLMTEKLSQKNINLIFAVTENVVNLYQNYSELIPGTTVGVLSMDSSNVLQLIVDAYGKIRSKVELEVRDLPEELSLSFNATCLNNEVIPGLKSCMGLKIGDTVSFSIEAKVRGCPQEKEKSFTIKPVGFKDSLIVQVTFDCDCACQAQAEPNSHRCNNGNGTFECGVCRCGPGWLGSQCECSEEDYRPSQQDECSPREGQPVCSQRGECLCGQCVCHSSDFGKITGKYCECDDFSCVRYKGEMCSGHGQCSCGDCLCDSDWTGYYCNCTTRTDTCMSSNGLLCSGRGKCECGSCVCIQPGSYGDTCEKCPTCPDACTFKKECVECKKFDRGALHDENTCNRYCRDEIESVKELKDTGKDAVNCTYKNEDDCVVRFQYYEDSSGKSILYVVEEPECPKGPDILVVLLSVMGAILLIGLAALLIWKLLITIHDRKEFAKFEEERARAKWDTANNPLYKEATSTFTNITYRGT
notes: whole, on cells; On platelets GPIIIa stands in the GPIIb-IIIa complex; also called platelet GPIIIa(49-66); platelet integrin GPIIIa

Experiments:
[1] = biological target: T1, C-terminal truncated 35S-ADAMTS-18 …; experiment: 35S-labelled protein on gel filtered platelets, overnight at 4 C
Experimental: FIGS. 14A-C show the effect of ADAMTS-18 on oxidative platelet fragmentation and binding to platelets. […] Gel-filtered platelets were treated with Biotin-peptide (bp) as well as bp+streptavidin (str) and scrambled Biotinylated ADAMTS-18 peptide (scp) to induce integrin clustering, n=6. Platelet fragmentation was assessed by FACS as described in the examples section. […] CT (control IgG), Ab (patient IgG). 18-mer biotin-peptide was incubated with an anti-Biotin Ab, 1:200 dilution (gray bars) or irrelevant IgG white bars, n=6. Oxidation was assessed. […] Ctl refers to ³⁵S ribosomal-translation of luciferase. AD-CTD refers to ³⁵S-ribosomal translation of ADAMTS-18 with absent C-terminal 157 amino acids (13% deleted). There is an absence of binding with C-terminal deficient ADAMTS-18. 18 mer refers to 10 μM non-radioactive 18 mer peptide added with the ³⁵S-ADAMTS-18 incubation. Binding with C-terminal 18 mer peptide is inhibited. The amino acid sequence for the 18-mer peptide is (SEQ ID NO: 8): […]

[2] = biological target: B1; experiment: cell-based or functional assay

binding result [1] | platelet fragmentation of TFLLRN-activated platelets against platelets without prestimulation [2] [fold] | Binder
no binding |  | B1
 | ~22 | ADAMTS-18 C-terminal 385 amino acid fragment (AD-18F) (ligand) NETLVFEILMQGKNPGIAWKYALPKVMNGTPPATKRPAYTWSIVQSECSVSCGGGYINVKAICLRDQNTQVNSSFCSAKTKPVTEPKICNAFSCPAYWMPGEWSTCSKACAGGQQSRKIQCVQKKPFQKEEAVLHSLCPVSTPTQVQACNSHACPPQWSLGPWSQCSKTCGRGVRKRELLCKGSAAETLPESQCTSLPRPELQEGCVLGRCPKNSRLQWVASSWSECSATCGLGVRKREMKCSEKGFQGKLITFPERRCRNIKKPNLDLEETCNRRACPAHPVYNMVAGWYSLPWQQCTVTCGGGVQTRSVHCVQQGRPSSSCLLHQKPPVLRACNTNFCPAPEKREDPSCVDFFNWCHLVPQHGVCNHKFYGKQCCKSCTRKI
